Experimental data reported in paper PMC6697747.

Legend:
[1] = confocal, Met co-internalisation with NRP1, HT29; settings: glycan lost; control: NRP1-WT
[2] = confocal, EEA1/Rab7 co-localisation, 10% FBS medium; settings: glycan lost; control: NRP1-WT
[3] = confocal, surface delivery; 24 h transient or serum-free; settings: glycan lost; control: NRP1-WT
[4] = confocal, β1-integrin co-internalisation with NRP1, HT29; settings: glycan lost; control: NRP1-WT
[5] = confocal, HGF-stimulated endocytosis after serum starvation; settings: glycan lost; control: NRP1-WT
[6] = cycloheximide chase, western blot; settings: glycan lost; control: NRP1-WT
[7] = confocal, HT29 NRP1-WT cells, 24 h treatment; settings: control: DMSO

Substance | localisation_or_trafficking [1] | localisation_or_trafficking [2] | localisation_or_trafficking [3] | localisation_or_trafficking [4] | localisation_or_trafficking [5] | degradation_or_half_life [6] | localisation_or_trafficking ([7]; glycan changed form) | localisation_or_trafficking ([7]; glycan lost)
Neuropilin-1 (NRP1): N150Q | increases | changes | no change | increases | increases | increases | – | –
Neuropilin-1 (NRP1): N150Q/N261Q | – | changes | – | – | – | increases | – | –
Neuropilin-1 (NRP1): N261Q | increases | changes | no change | increases | increases | increases | – | –
Neuropilin-1 (NRP1): N300Q | – | no change | – | – | no change | no change | – | –
Neuropilin-1 (NRP1): N522Q | – | no change | – | – | no change | no change | – | –
Neuropilin-1 (NRP1): N842Q | – | no change | – | – | no change | no change | – | –
Neuropilin-1 (NRP1): S612A | – | no change | – | – | no change | no change | – | –
Neuropilin-1 (NRP1): swainsonine | – | – | – | – | – | – | changes | –
Neuropilin-1 (NRP1): tunicamycin | – | – | – | – | – | – | – | changes
